Legend:
[1] = biological target: T1, RsmA (Pseudomonas aeruginosa M18, UniProt O69078 1-61); assay: SPR; biotin-RNA on SA chip; 200 mM NaCl, 20 mM Tris-HCl pH 8.0, 1 mM EDTA, 1 mM DTT; 25 C; EMSA: 200 mM KCl, 100 mM HEPES pH 7.3, 10 mM MgCl2, 2 ug tRNA, 5% glycerol, 10 mM DTT, room temp 30 min, 1 nM RNA; SPR: 200 mM NaCl, 20 mM Tris-HCl pH 8.0, 1 mM EDTA, 1 mM DTT, 25 C; conditions: protein: recombinant; tags: C-terminal His tag; chain copies: 2; label: 3' biotin
[2] = biological target: T1, RsmA; assay: EMSA; RsmA 0-400 nM; EMSA: 200 mM KCl, 100 mM HEPES pH 7.3, 10 mM MgCl2, 2 ug tRNA, 5% glycerol, 10 mM DTT, room temp 30 min, 1 nM RNA; SPR: 200 mM NaCl, 20 mM Tris-HCl pH 8.0, 1 mM EDTA, 1 mM DTT, 25 C; conditions: protein: recombinant; tags: C-terminal His tag; chain copies: 2; label: 3' biotin

T1 sequence (O69078 whole entry): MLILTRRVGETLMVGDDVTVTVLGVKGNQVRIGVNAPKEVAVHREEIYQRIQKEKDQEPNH

Binder | Kd [1] | binding result [2]
UCUUCUUUCCGGUAUGGAUGCCAGUCGAUUC (ssRNA) [phz2-S3] | 54.5 nM | –
GGCAAUUCGGCAUUAGUUGAAACUUUGGAGACGCUCCGAA (ssRNA) [phz2-S1] | – | no binding
GGGCAACUUUUGCCCGGAAAAAGCUUCACGGCAAUUUCUC (ssRNA) [phz2-S2] | – | no binding
UCUUCUUUCCGGUAUUUCUGCCAGUCGAUUC (ssRNA) [phz2-S3M] | – | no binding
